This test addresses mouse complement protein C5 (mouse) (UniProt P06684). In words: cell-based or functional assay.

Sequence of monoclonal anti-C5 antibody BB5.1 (VH): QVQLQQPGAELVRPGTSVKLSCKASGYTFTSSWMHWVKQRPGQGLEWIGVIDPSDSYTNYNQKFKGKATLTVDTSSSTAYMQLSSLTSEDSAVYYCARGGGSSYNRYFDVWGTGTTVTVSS
Sequence of monoclonal anti-C5 antibody BB5.1 (VL): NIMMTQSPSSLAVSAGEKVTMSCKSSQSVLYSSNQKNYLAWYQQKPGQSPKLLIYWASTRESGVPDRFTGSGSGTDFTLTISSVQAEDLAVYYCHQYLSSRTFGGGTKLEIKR

In the case of “Crovalimab (original name SKY59) (antibody)”, the 50% Inhibitory Dose, classical pathway haemolysis assay amounted to 1860 ng/mL and the Haemolytic Units (HU), classical pathway haemolysis assay came to 1.4 HU.

Turning to monoclonal anti-C5 antibody BB5.1, the 50% Inhibitory Dose, classical pathway haemolysis assay was determined as 614 ng/mL and the Haemolytic Units (HU), classical pathway haemolysis assay came out at 16.3 HU.
